Experimental findings from PMC5858766, “Identification of aaNAT5b as a spermine N-acetyltransferase in the mosquito, Aedes aegypti” (PLoS ONE, 2018) are described below.

What all share (assay): purified protein
Format in all cases: biochemical, Aedes aegypti
What all share (settings): 0.4 mM acetyl-CoA, 50 mM Tris-HCl, 1 mg/mL BSA, room temperature, 5 min; apparent Km

Substrate in data set [1]: N=C(N)NCCCCN
Substrate in data set [2]: NCCCCN
Substrate in data set [3]: NCCCCNCCCN
Substrate in data set [4]: NCCCNCCCCNCCCN
Substrate in data set [5]: NCCc1c[nH]cn1
Substrate in data set [6]: NN

B1: aaNAT5b/SAT (Aedes aegypti) (protein)
chain: MVAPESIVLRVARLDELEQVREILHRIYYPEEGITISYVHGKSHTLDDERFSLSFVEQGTVVVAEDSAAKKFIGVSIAGPIQPGDPDAMVEEAATTETKKWGDILKLLALLERTADVCGRYGLEKAYHVHILAVDPTYRGHSLGQRLLQFQMDLSKKLGFKAISGDFTSVFSVKLAEKLGMECISQLALGDYRDEKGEKLFEPLDVHQVIKTCVKLL
notes: about 25 kDa; monomer
A word on the Km: it is the substrate concentration at which the rate is half of its maximum. The term kcat denotes the maximal rate divided by the concentration of active sites. What is called kcat/Km is the turnover number divided by the Michaelis constant. Take B1: the Km stood at 210 ± 50 µM in the data set “purified protein [1]”; 520 ± 110 µM in the data set “purified protein [2]”; 690 ± 120 µM in the data set “purified protein [3]”; 170 ± 40 µM in “purified protein [4]”; 700 ± 130 µM in “purified protein [5]”; 260 ± 30 µM in “purified protein [6]”. Also, the kcat in “purified protein [1]” is 2.5 ± 0.183 s⁻¹; in “purified protein [2]” it was 0.503 ± 0.0267 s⁻¹; in “purified protein [3]”, 0.26 ± 0.0233 s⁻¹; in the data set “purified protein [4]”, 3.32 ± 0.2 s⁻¹; in “purified protein [5]” it was 0.277 ± 0.0217 s⁻¹; in “purified protein [6]” it was 0.637 ± 0.0283 s⁻¹. In addition, the kcat/Km turned out to be 11900 M⁻¹ s⁻¹ in “purified protein [1]”; 967 M⁻¹ s⁻¹ in “purified protein [2]”; 383 M⁻¹ s⁻¹ in “purified protein [3]”; 19500 M⁻¹ s⁻¹ in the data set “purified protein [4]”; 400 M⁻¹ s⁻¹ in the data set “purified protein [5]”; 2450 M⁻¹ s⁻¹ in the data set “purified protein [6]”.
